Molecular target: Biotinylated recombinant human TNF‐α (human, UniProt P01375 77-233, biotin on primary amines (lysine conjugation, NHS-PEG4-biotin))
Assay: ELISA; sparsely biotinylated hTNF-α (7.5 nM) held on avidin-coated 96-well plates; hTNFR1-ECD-HRP in solution, read at 450 nm with TMB; apparent EC50
Details: both partners purified

Biotinylated recombinant human TNF‐α, sequence (P01375 77-233): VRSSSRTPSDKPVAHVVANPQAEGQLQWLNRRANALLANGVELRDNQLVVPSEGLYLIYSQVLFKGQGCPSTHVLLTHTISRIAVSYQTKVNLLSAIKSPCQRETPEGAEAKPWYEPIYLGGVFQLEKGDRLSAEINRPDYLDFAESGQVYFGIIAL

- EC50: 4.6 nM
B1: HRP‐tagged human TNF‐α receptor 1 extracellular domain (receptor)
chain: RDSVCPQGKYIHPQNNSICCTKCHKGTYLYNDCPGPGQDTDCRECESGSFTASENHLRHCLSCSKCRKEMGQVEISSCTVDRDTVCGCRKNQYRHYWSENLFQCFNCSLCLNGTVHLSCQEKQNTVCTCHAGFFLRENECVSCSNCKKSLECTKLCLPQIEN
modifications: conjugated to horse‐radish peroxidase (HRP Conjugation Kit, Proteintech PK20001)

From publication PMC9313502 (Advanced Science, 2022)
